Experimental data as given in publication PMC2171992.

What was measured:
[1] = biological target: muscle actin (UniProt P68135); test: seeded actin assembly kinetics
[2] = biological target: muscle actin (UniProt P68135); test: apparent critical concentration for actin polymerization at steady state

| Kd of capping (barbed end; fit with capping and monomer binding) [1] | Kd of monomer binding (fit with capping and monomer binding) [1] | k+2 of capping (barbed end; fit with capping and monomer binding) [1] | Kd [1] | koff [1] | Kd [2] | Substance |
| --- | --- | --- | --- | --- | --- | --- |
| 1710 nM | 2860 nM | 2100 M⁻¹ s⁻¹ | – | – | – | Cap1 C-30, synthetic peptide corresponding to the Cap1 COOH-terminal 30 residues, 239–268 (from UniProt P28495 239-268) |
| – | – | – | 10300 nM | 0.00233 s⁻¹ | > 50000 nM | Cap1Δ(239–268)/Cap2 (from UniProt P28495 1-238; P13517 1-287) (complex) |
